The record followed here is article PMC11506642, “Cooperative Substructure and Energetics of Allosteric Regulation of the Catalytic Core of the E3 Ubiquitin Ligase Parkin by Phosphorylated Ubiquitin” (Biomolecules, 2024).

For the assay, the target named is T1, phosphorylated ubiquitin (UniProt P0CG47 1-76, phosphorylated (site not given)).
T1 construct: ubiquitin, the mature cut product of its precursor; also called pUb; source: prepared as described [16]
Nature of the assay: HDX-MS; native-state hydrogen exchange with pepsin fragmentation MS; 20 mM HEPES, 150 mM NaCl, 10 uM ZnCl2, 1 mM TCEP, 2.5% glycerol, pH 7.0, 20 °C, urea up to 4 M; ~7 uM Parkin(∆Ubl), ~12 uM pUb. The conditions noted are these: both partners purified.

B1: Parkin(∆Ubl) (domain or fragment, human)
chain: SSGSPAGRSIYNSFYVYCKGPCQRVQPGKLRVQCSTCRQATLTLTQGPSCWDDVLIPNRMSGECQSPHCPGTSAEFFFKCGAHPTSDKETSVALHLIATNSRNITCITCTDVRSPVLVFQCNSRHVICLDCFHLYCVTRLNDRQFVHDPQLGYSLPCVAGCPNSLIKELHHFRILGEEQYNRYQQYGAEECVLQMGGVLCPRPGCGAGLLPEPDQRKVTCEGGNGLGCGFAFCRECKEAYHEGECSAVFEASGTTTQAYRVDERAAEQARWEAASKETIKKTTKPCPRCHVPVEKNGGCMHMKCPQPQCRLEWCWNCGCEWNRVCMGDHWFDV
notes: two extra serines that precede the Parkin residues in the construct; E3 ubiquitin ligase Parkin, human, canonical isoform (Swiss-Prot O60260-1), residues 135 through 465; RING0, RING1, IBR, REP and RING2 domains, without the Ubl domain and linker; The introduction defines the core as residues 137-461; the methods give the construct as (SS) plus 135-465; The His-SUMO fusion was cut with TEV …
On to B1, for which the binding result is “binds”.
